Where two headings read alike, the source gives them in different places. Positions of bridges follow the written chain, without caps; N, C: chain ends. No end group written: not given here.
B1: BMP-7: recombinant human mature BMP-7 (BMP-7 or TDF-1), positive control therapy (protein)
chain: STGSKQRSQNRSKTPKNQEALRMANVAENSSSDQRQACKKHELYVSFRDLGWQDWIIAPEGYAAYYCEGECAFPLNSYMNATNHAIVQTLVHFINPETVPKPCCAPTQLNAISVLYFDDSSNVILKKYRNMVVRACGCH

Legend:
HK-2 cells = assay: Cisplatin-induced apoptosis in HK-2 cells (Annexin V staining); type: cell-based, human; settings: 10 uM cisplatin, 500 uM compound, prophylactic or therapeutic
Method: Apoptosis and cell viability are quantified using AnnexinV-FITC and propidium iodide staining of HK-2 cells following cisplatin treatment. Immortalized PTEC-derived HK-2 cells (ATCC number CRL-2190) are cultured in serum-free keratinocyte medium (GIBCO number 17005-042) supplemented with EGF and BPE for 48 hours (Ryan et al. 1994 Kidney Int 45:48-57). Medium is aspirated and cells are washed with PBS and incubated in the dark for 15 min at room temperature with 10 μl of media binding agent and 1.25 μl of FITC conjugated AnnexinV. Propidium iodide (10 μl) is added, and samples are analyzed immediately. Quantification of Annexin V-FITC and propidium iodide signals is performed by fluorescence microscopy (Axiovert 135; Carl Zeiss). Phase contrast images are observed using transmitted light. Apoptotic cells show cytoplasmic staining and viable cells remain unstained (FIG. 17).

ALK-3 = ALK-3 (Homo sapiens, UniProt P36894); assay: Radioligand receptor binding assay (competition with 125I-labeled TDF-1)
ALK-3, sequence (P36894 24-532, species assumed): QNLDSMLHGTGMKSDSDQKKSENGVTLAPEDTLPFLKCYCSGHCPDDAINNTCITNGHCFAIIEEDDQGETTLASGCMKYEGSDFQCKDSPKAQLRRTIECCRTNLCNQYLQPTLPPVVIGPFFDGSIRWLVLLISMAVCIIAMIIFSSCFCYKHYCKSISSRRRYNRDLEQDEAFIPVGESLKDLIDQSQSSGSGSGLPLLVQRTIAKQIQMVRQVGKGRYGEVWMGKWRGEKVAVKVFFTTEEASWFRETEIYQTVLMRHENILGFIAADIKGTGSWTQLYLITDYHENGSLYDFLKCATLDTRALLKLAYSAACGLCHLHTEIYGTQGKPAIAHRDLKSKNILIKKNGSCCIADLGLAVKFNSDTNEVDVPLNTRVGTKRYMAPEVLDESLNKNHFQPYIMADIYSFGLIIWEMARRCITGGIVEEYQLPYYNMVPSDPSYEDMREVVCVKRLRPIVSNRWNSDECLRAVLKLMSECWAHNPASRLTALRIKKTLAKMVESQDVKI
Text: Radioligand Receptor Binding Assays for ALK-3, ALK-6 and BMPR-2:
The assays are based on competition between ^125I-labeled TDF-1 (BMP-7 or OP-1 or other BMPs) and candidate TDFRP compounds or unlabeled TDF-1 for binding to respective receptors (ALK-3, ALK-6 or BMPR-2 or other BMP receptors or co-receptors). In brief, the procedure involves immobilization of receptor on 96 well Removawell plates, blocking the wells with 3% BSA in PBS and subsequently washing the wells. Increasing concentrations of unlabeled TDF-1 or TDFRP compounds or control (unlabeled TDF-1) prepared in binding buffer are then added. Incubate plate for 1 hour at room temperature, and then add a fixed amount of ^125I-labeled TDF-1 (250,000 to 350,000 cpm) to the wells and further incubate in cold (4° C.) for 20 hours. Aspirate the contents of the wells and wash the wells four times with a wash buffer, and count the receptor bound ^125I-labeled TDF-1 in an auto gamma counter.
Using this procedure, TDFRP compound binding to select ALK receptors are assessed. Accordingly, TDFRP compounds that preferentially bind select ALK receptors can be identified. For example, TDFRP compounds that preferentially bind to ALK-3 receptor compared with binding to other ALK receptors, e.g., ALK-6 (FIGS. 1, 15).
A. Radioligand Receptor Binding Assays For ALK-3, ALK-6 and BMPR-2: […]

UUO mice = assay: Unilateral ureteral obstruction (UUO) mouse model of chronic renal injury; type: in vivo
Method: Schematic of the unilateral urinary obstruction (UUO) mouse model of chronic renal injury. One ureter was ligated on Day 0 (D0) and mice received one of the following treatments: vehicle (control), BMP-7 by intraperitoneal (ip) administration (positive control) or TDFRP by ip, intravenous (iv) or oral (po) administration. Mice were sacrificed on Day 5 (D5) or Day 7 (D7) and the kidneys were evaluated for disease pathology.
Unilateral ureteral obstruction (UUO) is a model resembling human obstructive nephropathy, which represents an inducible chronic model of interstitial fibrosis. UUO is induced by ligation of one ureter, leaving the contra-lateral kidney to serve as a control. As a result of the procedure, mice develop renal tubulointerstitial inflammation, tubulointerstitial fibrosis and tubular atrophy, without hypertension, proteinuria, lipid dysregulation and little glomerular damage contributing to the disease state (Ito et al (2004). J. Urol. February; 171(2 Pt 1): 926-30.; Bhangdia et al. (2003) J. Urol. November; 170(5): 2057-62.; Rawashdeh et al. (2003) Invest Radiol. 2003 March; 38(3): 153-8.; Hruska et al (2000) Am J Physiol Renal Physiol. 2000 July; 79(1): F130-43.). Furthermore, renal fibrosis is associated with alteration of epithelial and fibroblastic cells to myofibroerblasts, along with increased expression of TGF-beta and progressive loss of renal function.

ALK-6 = ALK-6 (Homo sapiens, UniProt O00238); settings: native protein; cited from earlier work
ALK-6, sequence (O00238 14-502): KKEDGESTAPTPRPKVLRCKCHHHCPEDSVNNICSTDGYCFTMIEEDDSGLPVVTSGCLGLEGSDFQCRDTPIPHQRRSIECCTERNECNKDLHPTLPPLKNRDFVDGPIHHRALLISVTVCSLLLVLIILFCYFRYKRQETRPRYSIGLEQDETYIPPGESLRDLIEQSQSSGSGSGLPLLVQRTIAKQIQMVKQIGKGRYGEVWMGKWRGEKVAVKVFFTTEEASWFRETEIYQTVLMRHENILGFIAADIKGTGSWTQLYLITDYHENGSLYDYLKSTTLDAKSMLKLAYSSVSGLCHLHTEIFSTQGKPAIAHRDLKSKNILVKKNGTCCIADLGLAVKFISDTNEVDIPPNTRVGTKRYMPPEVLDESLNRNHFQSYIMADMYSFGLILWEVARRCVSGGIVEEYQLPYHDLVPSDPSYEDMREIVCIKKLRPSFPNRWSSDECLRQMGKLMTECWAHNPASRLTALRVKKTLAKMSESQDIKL

| Molecule | cisplatin-induced apoptosis (HK-2 cells) | binding to BMP Type I ALK-3 receptor compared to ALK-6 receptor (ALK-3) | binding to BMP Type I ALK-3 receptor compared to ALK-6 receptor (ALK-3; listed as SEQ ID NO 45) | severity of tubular damage (percent of renal tubular degradation) (UUO mice; 5-day model, administered orally, ip or iv) | progression of tubulointerstitial fibrosis disease (UUO mice; 5-day model, oral 5 mg/kg/24 hours or iv 50 mg/kg/24 hours) | progression of tubulointerstitial fibrosis disease (UUO mice; 7-day model, oral or iv 5 mg/kg/24 hours) | affinity of binding to ALK-6 (ALK-6) | chronic renal injury (UUO mice; 5-day model, ip 300 ug/kg/48 hours) | UUO chronic renal injury (UUO mice; 7-day model, ip 300 ug/kg/48 hours) |
| --- | --- | --- | --- | --- | --- | --- | --- | --- | --- |
| CYFDDSSNVLCKKYRS (disulfide 1-11 (inferred); not fully specified) [SEQ ID NO:45] | inhibits | binds preferentially | selectively binds | attenuated the severity of tubular damage | attenuated progression | significantly attenuated | – | – | – |
| B1 | – | – | – | – | – | – | higher affinity | Reversal | Reversal |

Reference: patent US8911953B2, “TDF-related compounds and analogs thereof, analogs and bioactive fragments” (Thrasos Innovation, Inc., priority 2005, dated 2014)
